The data set deals with the molecule itself. Briefly: crystal structure; hanging-drop vapour diffusion at 4°C, 2.2 M ammonium sulfate, 100 mM sodium acetate pH 4.25 and 4.75; crystals soaked with 4NPG (one also with GSH); one protomer in the asymmetric unit, dimer by crystallographic two-fold.

From PMC3621891, “Structural Insights into Omega-Class Glutathione Transferases: A Snapshot of Enzyme Reduction and Identification of a Non-Catalytic Ligandin Site” (PLoS ONE, 2013) come the findings set out here.

B1: hGSTO1-1 C32A mutant (human omega-class glutathione transferase 1-1, active-site mutant) (enzyme)
chain: MSGESARSLGKGSAPPGPVPEGSIRIYSMRFAPFAERTRLVLKAKGIRHEVININLKNKPEWFFKKNPFGLVPVLENSQGQLIYESAITCEYLDEAYPGKKLLPDDPYEKACQKMILELFSKVPSLVGSFIRSQNKEDYAGLKEEFRKEFTKLEEVLTNKKTTFFGGNSISMIDYLIWPWFERLEAMKLNECVDHTPKLKLWMAAMKEDPTVSALLTSEKDWQGFLELYLQNSPEACDYGL
notes: human glutathione transferase omega 1 (hGSTO1), C32A active-site mutant; after cleavage no additional N-terminal residues; residues 4 to 241 are seen in the final model; Homodimer; the dimer is produced by two-fold crystallographic symmetry (one protomer in the asymmetric unit); Crystals held GSSG, 4NPG, DTT and sulfate; source: E. coli BL21 (DE3), purified (Ni-NTA agarose, cleavage by …)
As to B1, the binding result is “binds”.
